Laboratory results reported in patent US20130252307A1.
Positions count from the first letter of the chain named. Names may count otherwise.

B1: archaeal/eukaryotic common ancestor (AECA) Trx (protein)
chain: MSVIEINDENFDEVIKKSDKVVVVDFWAEWCGPCRMIAPIIEELAEEYAGKVVFGKVNVDENPEIAAKYGIMSIPTLLFFKNGKVVDQLVGARPKEALKERIKKYL
B2: last archaeal common ancestor (LACA) Trx (protein)
chain: B1 chain with I4V, E5Q, I6L, S18N, D19N, E46K, V57L, I65T, R93M
B3: last eukaryotic common ancestor (LECA) Trx (protein)
chain: MVIQVTNKEEFEAILSEADKLVVVDFFATWCGPCKMIAPFFEELSEEYPDKVVFIKVDVDEVPDVAAKYGITSMPTFKFFKNGKKVDELVGANQEKLKQMILKHAP
B4: last common ancestor of γ-proteobacteria (LGPCA) Trx (protein)
chain: MSIIHVTDDSFDQDVLKADKPVLVDFWAEWCGPCKMIAPILDEIAEEYEGKLKVAKVNIDENPETAAKYGIRGIPTLMLFKNGEVAATKVGALSKSQLKEFLDANL
B5: last common ancestor of animals and fungi (LAFCA) Trx (protein)
chain: MVIQVTNKDEFESILSEADKLVVVDFTATWCGPCKMIAPKFEELSEEYPDNVVFLKVDVDEVEDVAAEYGISAMPTFQFFKNGKKVDELTGANQEKLKAMIKKHAA
B6: wild type human Trx enzyme (protein)
chain: VKQIESKTAFQEALDAAGDKLVVVDFSATWCGPCKMIKPFFHSLSEKYSNVIFLEVDVDDCQDVASECEVKCMPTFQFFKKGQKVGEFSGANKEKLEATINELV
B7: C35S human thioredoxin mutant (hTrx^C35S) (protein)
chain: B6 chain with C34S
B8: last common ancestor of cyanobacterial and deinococcus/thermus groups (LPBCA) Trx (protein)
chain: MSVIEVTDENFEQEVLKSDKPVLVDFWAPWCGPCRMIAPIIEELAKEYEGKVKVVKVNVDENPNTAAQYGIRSIPTLLLFKNGQVVDRLVGAQPKEALKERIDKHL
B9: last bacterial common ancestor (LBCA) Trx (protein)
chain: MSVIEINDENFEEEVLKSDKPVLVDFWAPWCGPCRMIAPIIEELAEEYEGKVKFAKVNVDENPETAAKYGIMSIPTLLLFKNGEVVDKLVGARPKEALKERIEKHL

Key:
[1] = target: (I27G32C-A75C)8 polypeptide (UniProt Q8WZ42)
[2] = target: (I27G32C-A75C)8 polypeptide, Q8WZ42
[3] = target: (I27G32C-A75C)8 polypeptide (UniProt Q8WZ42); assay: given as α0 (k01=α0[Trx]); three-state kinetic model fitted to force-dependent disulfide reduction rates, single-molecule AFM force-clamp, pH 7.2; not a direct binding assay
[4] = target: (I27G32C-A75C)8 polypeptide (UniProt Q8WZ42); assay: given as k10 (k10=δ0); three-state kinetic model fitted to force-dependent disulfide reduction rates, single-molecule AFM force-clamp, pH 7.2; not a direct binding assay

kon [3] [M⁻¹ s⁻¹] | koff [4] [s⁻¹] | Molecule | staircases of single reduction events (AFM force-clamp) [2] | Δx02 (Å) [2] [Å] | Δx12 (Å) [2] [Å] | β0 (s-^1) [2] [s⁻¹] | γ0 [2] [µM⁻¹ s⁻¹] | λ0 [2] [s⁻¹] | further results
 |  | Trx from Sulfolobus tokodaii |  |  |  |  |  |  | rate of disulfide reduction at pH 5 [1]: does not show detectable activity at pH 5; rate of disulfide reduction at pH 7, 50 pN [1]: active at pH 7 (0.12×10^5 M^-1 s^-1 at 50 pN)
 |  | Trx from Acetobacter aceti |  |  |  |  |  |  | rate of disulfide reduction at pH 5, 100 pN [1]: active at pH 5 (0.6×10^5 M^-1 s^-1 at 100 pN)
 |  | B1 | All the ancestral enzymes resurrected using the methods described herein were able to trigger staircases of reduction events | 0.19 | -0.84 | 25 | 0.019 | 0.21 | rate constant of disulfide bond reduction extrapolated to zero force (pH 7.2) [2]: 30×10^5 M^-1 s^-1 for AECA Trx; reduction rate constant at pH 5 extrapolated to zero force [2]: 19×10^5 M^-1 s^-1
 |  | B2 | All the ancestral enzymes resurrected using the methods described herein were able to trigger staircases of reduction events |  | -0.76 | 43 |  | 0.38 | rate constant of disulfide bond reduction extrapolated to zero force (pH 7.2) [2]: 29×10^5 M^-1 s^-1 for LACA Trx; reduction rate constant at pH 5 extrapolated to zero force [2]: 6.2×10^5 M^-1 s^-1
760000 | 4.2 | B3 | All the ancestral enzymes resurrected using the methods described herein were able to trigger staircases of reduction events |  | -0.8 | 38 |  | 0.18 | 
480000 | 3.8 | B4 | All the ancestral enzymes resurrected using the methods described herein were able to trigger staircases of reduction events | 0.17 | -0.83 | 34 | 0.012 | 0.35 | 
810000 | 4.6 | B5 | All the ancestral enzymes resurrected using the methods described herein were able to trigger staircases of reduction events |  | -0.74 | 37 |  | 0.06 | 
 |  | B6 |  |  |  |  |  |  | rate of reduction at pH 5, fold lower than LBCA [2]: modern E. coli and human thioredoxin show ˜20 fold lower rates at this pH; reoxidation of substrate disulfide bonds during refolding (step sizes in the probe pulse) [2]: none of the refolded domains formed a disulfide bond, indicating that the wild type form of thioredoxin does not catalyze reoxidation
 |  | B7 |  |  |  |  |  |  | reoxidation of substrate disulfide bonds during refolding (step sizes in the probe pulse) [2]: the step sizes during the probe pulse are now entirely composed of 11 and 14 nm steps, indicating the full reoxidation of all the disulfide bonds
470000 | 4.9 | B8 | All the ancestral enzymes resurrected using the methods described herein were able to trigger staircases of reduction events | 0.17 | -0.71 | 30 | 0.017 | 0.19 | 
470000 | 5.8 | B9 | All the ancestral enzymes resurrected using the methods described herein were able to trigger staircases of reduction events | 0.19 | -0.74 | 30 | 0.004 | 0.09 | rate of catalysis at pH 5 [2]: showed a high rate of catalysis at pH 5, where extant enzymes are largely inactive; reduction rates at pH 5 [2]: the reduction rates observed at pH 5 are strikingly similar to those measured at pH 7.2
